Legend:
Cx36 K238E-E230K (human) = Cx36 K238E-E230K (human) (UniProt Q9UKL4)
Cx36 E230K-E239K (human) = Cx36 E230K-E239K (human) (UniProt Q9UKL4)
Cx36 E239K (human) = Cx36 E239K (human) (UniProt Q9UKL4)
Cx36 K238A (human) = Cx36 K238A (human) (UniProt Q9UKL4)
Cx36 K238Q (human) = Cx36 K238Q (human) (UniProt Q9UKL4)
Cx36 K238E-E239K (human) = Cx36 K238E-E239K (human) (UniProt Q9UKL4)
[1] = biological target: Connexin36 (Cx36), human, wildtype (human) (UniProt Q9UKL4)
Cx36 E230K (human) = Cx36 E230K (human) (UniProt Q9UKL4)
Cx30, human (human) = Cx30, human (human) (UniProt O95452)
Cx31.3, human (human) = Cx31.3, human (human) (UniProt Q8NFK1)
Cx47, human (human) = biological target: T1, Cx47, human (human) (UniProt Q5T442)
T1 sequence: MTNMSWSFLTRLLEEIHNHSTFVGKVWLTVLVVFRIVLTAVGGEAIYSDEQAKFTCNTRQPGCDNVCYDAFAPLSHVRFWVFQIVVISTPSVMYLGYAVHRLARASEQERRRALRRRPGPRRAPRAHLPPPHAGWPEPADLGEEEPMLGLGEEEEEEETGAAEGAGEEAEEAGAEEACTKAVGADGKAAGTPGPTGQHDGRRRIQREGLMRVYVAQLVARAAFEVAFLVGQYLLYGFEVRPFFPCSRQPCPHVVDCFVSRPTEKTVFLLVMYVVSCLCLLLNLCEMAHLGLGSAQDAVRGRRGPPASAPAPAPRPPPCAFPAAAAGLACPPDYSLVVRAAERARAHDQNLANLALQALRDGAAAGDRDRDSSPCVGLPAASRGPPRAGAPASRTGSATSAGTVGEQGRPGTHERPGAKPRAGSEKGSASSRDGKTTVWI

Cx43, human (human) = Cx43, human (human) (UniProt P17302)
Cx32 (human) = Cx32 (human) (UniProt P08034)
Cx26, human (human) = Cx26, human (human) (UniProt P29033)
Cx45, human (human) = Cx45, human (human) (UniProt P36383)
Cx36 K238E (human) = Cx36 K238E (human) (UniProt Q9UKL4)
[2] = biological target: Cx36 E230K-E239K-E241K (human) (UniProt Q9UKL4)
Cx36 E241A (human) = Cx36 E241A (human) (UniProt Q9UKL4)
Cx36 E241K (human) = Cx36 E241K (human) (UniProt Q9UKL4)
[3] = biological target: Cx36 K238E-E230K-E239K (human) (UniProt Q9UKL4)
[4] = biological target: Cx36 K238E-E230K-E239K-E241K (human) (UniProt Q9UKL4)

Chain of Connexin36 (Cx36), human, wildtype (Q9UKL4 whole entry): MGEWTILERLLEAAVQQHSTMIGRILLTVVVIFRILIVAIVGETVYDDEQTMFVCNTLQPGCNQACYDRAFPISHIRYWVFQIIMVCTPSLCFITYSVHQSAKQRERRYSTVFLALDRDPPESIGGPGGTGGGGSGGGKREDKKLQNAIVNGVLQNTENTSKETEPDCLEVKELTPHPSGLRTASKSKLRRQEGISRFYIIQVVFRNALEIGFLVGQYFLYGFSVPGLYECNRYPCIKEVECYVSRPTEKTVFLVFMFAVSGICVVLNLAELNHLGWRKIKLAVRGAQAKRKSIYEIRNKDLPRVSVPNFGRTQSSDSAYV
Chain of Cx43, human (P17302 whole entry): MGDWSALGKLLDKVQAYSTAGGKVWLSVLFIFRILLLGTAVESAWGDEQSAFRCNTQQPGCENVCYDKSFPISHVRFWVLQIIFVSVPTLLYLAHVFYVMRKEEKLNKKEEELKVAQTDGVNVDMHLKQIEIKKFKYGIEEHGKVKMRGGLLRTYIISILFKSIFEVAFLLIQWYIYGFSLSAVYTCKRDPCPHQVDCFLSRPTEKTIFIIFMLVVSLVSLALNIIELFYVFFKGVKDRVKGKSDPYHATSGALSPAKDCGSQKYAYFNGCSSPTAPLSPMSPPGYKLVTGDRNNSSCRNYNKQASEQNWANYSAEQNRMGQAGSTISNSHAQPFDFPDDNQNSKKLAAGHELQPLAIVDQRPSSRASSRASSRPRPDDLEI
Chain of Cx43, human (human) (P17302 whole entry): as above
Chain of Cx32 (human) (P08034 whole entry): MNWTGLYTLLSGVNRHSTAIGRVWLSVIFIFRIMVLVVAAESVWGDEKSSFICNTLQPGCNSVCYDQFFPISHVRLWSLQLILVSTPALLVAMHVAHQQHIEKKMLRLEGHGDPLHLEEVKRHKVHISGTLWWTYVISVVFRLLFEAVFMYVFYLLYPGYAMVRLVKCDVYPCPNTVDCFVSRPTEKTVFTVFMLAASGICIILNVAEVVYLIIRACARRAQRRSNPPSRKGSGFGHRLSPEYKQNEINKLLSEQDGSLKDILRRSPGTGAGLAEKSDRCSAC
Chain of Cx32 (P08034 whole entry): as above
Chain of Cx31.3, human (Q8NFK1 whole entry): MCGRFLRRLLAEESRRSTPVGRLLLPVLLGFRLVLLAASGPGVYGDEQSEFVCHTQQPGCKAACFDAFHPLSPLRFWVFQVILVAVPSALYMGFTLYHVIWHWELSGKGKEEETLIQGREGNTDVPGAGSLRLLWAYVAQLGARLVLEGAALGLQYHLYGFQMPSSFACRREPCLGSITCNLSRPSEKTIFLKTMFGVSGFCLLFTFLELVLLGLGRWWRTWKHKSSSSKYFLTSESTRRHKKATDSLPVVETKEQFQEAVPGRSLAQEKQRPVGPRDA
Chain of Cx31.3, human (human) (Q8NFK1 whole entry): as above
Chain of Cx45, human (P36383 whole entry): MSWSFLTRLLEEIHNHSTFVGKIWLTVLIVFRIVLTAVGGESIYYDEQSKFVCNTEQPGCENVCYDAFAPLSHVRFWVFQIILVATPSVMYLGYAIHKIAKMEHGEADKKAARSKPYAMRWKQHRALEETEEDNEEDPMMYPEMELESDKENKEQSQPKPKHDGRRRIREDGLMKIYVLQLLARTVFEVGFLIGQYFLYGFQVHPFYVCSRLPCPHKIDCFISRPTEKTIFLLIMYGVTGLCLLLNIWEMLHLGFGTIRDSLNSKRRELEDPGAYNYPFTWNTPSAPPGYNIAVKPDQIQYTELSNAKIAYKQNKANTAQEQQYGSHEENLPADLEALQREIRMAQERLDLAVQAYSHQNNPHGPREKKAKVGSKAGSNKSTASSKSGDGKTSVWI
Chain of Cx45, human (human) (P36383 whole entry): as above
Chain of Cx30, human (human) (O95452 whole entry): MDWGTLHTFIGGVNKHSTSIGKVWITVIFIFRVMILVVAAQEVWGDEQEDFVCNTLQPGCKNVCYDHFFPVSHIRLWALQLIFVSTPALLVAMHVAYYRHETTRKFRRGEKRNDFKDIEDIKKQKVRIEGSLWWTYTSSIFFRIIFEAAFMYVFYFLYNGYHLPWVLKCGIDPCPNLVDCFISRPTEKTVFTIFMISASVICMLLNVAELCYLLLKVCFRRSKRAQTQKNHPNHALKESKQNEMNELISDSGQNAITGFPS
Chain of Cx30, human (O95452 whole entry): as above

Connexin36 (Cx36), human, wildtype (from UniProt Q9UKL4 1-321) (natural protein)
median junctional conductance (Gj), dual whole-cell patch clamp of DKO HEK293 cell pairs, heterotypic; IQR 0–0; 16 pairs (Cx36 K238E-E230K (human)): 0 nS | median junctional conductance (Gj), dual whole-cell patch clamp of DKO HEK293 cell pairs, heterotypic; IQR 0.11–0.41; 19 pairs (Cx36 E230K-E239K (human)): 0.22 nS | median junctional conductance (Gj), dual whole-cell patch clamp of DKO HEK293 cell pairs, heterotypic; IQR 0.08–0.19; 18 pairs (Cx36 E239K (human)): 0.13 nS | median junctional conductance (Gj), dual whole-cell patch clamp of DKO HEK293 cell pairs, heterotypic; IQR 0.05–0.24; 17 pairs (Cx36 K238A (human)): 0.16 nS | median junctional conductance (Gj), dual whole-cell patch clamp of DKO HEK293 cell pairs, heterotypic; IQR 0.01–0.31; 16 pairs (Cx36 K238Q (human)): 0.13 nS | median junctional conductance (Gj), dual whole-cell patch clamp of DKO HEK293 cell pairs, heterotypic; IQR 0–0.10; 15 pairs (Cx36 K238E-E239K (human)): 0.06 nS | median junctional conductance (Gj), dual whole-cell patch clamp of DKO HEK293 cell pairs, homotypic; IQR 0.02–0.19; 38 pairs [1]: 0.1 nS | median junctional conductance (Gj), dual whole-cell patch clamp of DKO HEK293 cell pairs, heterotypic; IQR 0.04–0.22; 15 pairs (Cx36 E230K (human)): 0.14 nS | median junctional conductance (Gj), dual whole-cell patch clamp of DKO HEK293 cell pairs, heterotypic; IQR 0–0; 15 pairs (Cx30, human (human)): 0 nS | median junctional conductance (Gj), dual whole-cell patch clamp of DKO HEK293 cell pairs, heterotypic; IQR 0–0; 15 pairs (Cx31.3, human (human)): 0 nS | median junctional conductance (Gj), dual whole-cell patch clamp of DKO HEK293 cell pairs, heterotypic; IQR 0–0; 21 pairs (Cx47, human (human)): 0 nS | median junctional conductance (Gj), dual whole-cell patch clamp of DKO HEK293 cell pairs, heterotypic; IQR 0–0; 25 pairs (Cx43, human (human)): 0 nS | median junctional conductance (Gj), dual whole-cell patch clamp of DKO HEK293 cell pairs, heterotypic; IQR 0–0; 19 pairs (Cx32 (human)): 0 nS | median junctional conductance (Gj), dual whole-cell patch clamp of DKO HEK293 cell pairs, heterotypic; IQR 0–0; 19 pairs (Cx26, human (human)): 0 nS | median junctional conductance (Gj), dual whole-cell patch clamp of DKO HEK293 cell pairs, heterotypic; IQR 0–0; 26 pairs (Cx45, human (human)): 0 nS

Cx30, human (from UniProt O95452 1-261) (natural protein)
median junctional conductance (Gj), dual whole-cell patch clamp of DKO HEK293 cell pairs, homotypic; IQR 0.43–21.28; 16 pairs (Cx30, human (human)): 6.55 nS

Cx31.3, human (from UniProt Q8NFK1 1-279) (natural protein)
median junctional conductance (Gj), dual whole-cell patch clamp of DKO HEK293 cell pairs, homotypic; IQR 0–0; 17 pairs (Cx31.3, human (human)): 0 nS

Cx32 (from UniProt P08034 1-283) (natural protein)
median junctional conductance (Gj), dual whole-cell patch clamp of DKO HEK293 cell pairs, homotypic; IQR 0–16.23; 17 pairs (Cx32 (human)): 0.85 nS

Cx36 E230K (from UniProt Q9UKL4 1-321) (natural protein)
median junctional conductance (Gj), dual whole-cell patch clamp of DKO HEK293 cell pairs, heterotypic; IQR 0.05–0.22; 20 pairs (Cx36 K238E (human)): 0.1 nS | median junctional conductance (Gj), dual whole-cell patch clamp of DKO HEK293 cell pairs, heterotypic; IQR 0–0; 20 pairs (Cx36 E230K-E239K (human)): 0 nS | median junctional conductance (Gj), dual whole-cell patch clamp of DKO HEK293 cell pairs, homotypic; IQR 0–0.14; 28 pairs (Cx36 E230K (human)): 0.01 nS

Cx36 E230K-E239K (from UniProt Q9UKL4 1-321) (natural protein)
median junctional conductance (Gj), dual whole-cell patch clamp of DKO HEK293 cell pairs, heterotypic; IQR 0–0.18; 15 pairs (Cx36 K238E-E230K (human)): 0.09 nS | median junctional conductance (Gj), dual whole-cell patch clamp of DKO HEK293 cell pairs, homotypic; IQR 0–0; 20 pairs (Cx36 E230K-E239K (human)): 0 nS

Cx36 E230K-E239K-E241K (from UniProt Q9UKL4 1-321) (natural protein)
median junctional conductance (Gj), dual whole-cell patch clamp of DKO HEK293 cell pairs, homotypic; IQR 0–0; 12 pairs [2]: 0 nS

Cx36 E239K (from UniProt Q9UKL4 1-321) (natural protein)
median junctional conductance (Gj), dual whole-cell patch clamp of DKO HEK293 cell pairs, heterotypic; IQR 0.08–0.2; 23 pairs (Cx36 K238E (human)): 0.11 nS | median junctional conductance (Gj), dual whole-cell patch clamp of DKO HEK293 cell pairs, heterotypic; IQR 0–0.12; 21 pairs (Cx36 E230K-E239K (human)): 0.05 nS | median junctional conductance (Gj), dual whole-cell patch clamp of DKO HEK293 cell pairs, homotypic; IQR 0.04–0.31; 30 pairs (Cx36 E239K (human)): 0.12 nS

Cx36 E241A (from UniProt Q9UKL4 1-321) (natural protein)
median junctional conductance (Gj), dual whole-cell patch clamp of DKO HEK293 cell pairs, heterotypic; IQR 0–0; 16 pairs (Cx36 E230K-E239K (human)): 0 nS | median junctional conductance (Gj), dual whole-cell patch clamp of DKO HEK293 cell pairs, homotypic; IQR 0.03–0.19; 18 pairs (Cx36 E241A (human)): 0.09 nS

Cx36 E241K (from UniProt Q9UKL4 1-321) (natural protein)
median junctional conductance (Gj), dual whole-cell patch clamp of DKO HEK293 cell pairs, homotypic; IQR 0–0; 25 pairs (Cx36 E241K (human)): 0 nS

Cx36 K238A (from UniProt Q9UKL4 1-321) (natural protein)
median junctional conductance (Gj), dual whole-cell patch clamp of DKO HEK293 cell pairs, homotypic; IQR 0–0; 23 pairs (Cx36 K238A (human)): 0 nS

Cx36 K238E (from UniProt Q9UKL4 1-321) (natural protein)
median junctional conductance (Gj), dual whole-cell patch clamp of DKO HEK293 cell pairs, heterotypic; IQR 0–0; 15 pairs (Cx36 K238E-E230K (human)): 0 nS | median junctional conductance (Gj), dual whole-cell patch clamp of DKO HEK293 cell pairs, homotypic; IQR 0–0; 19 pairs (Cx36 K238E (human)): 0 nS | median junctional conductance (Gj), dual whole-cell patch clamp of DKO HEK293 cell pairs, heterotypic; IQR 0–0; 15 pairs (Cx36 K238E-E239K (human)): 0 nS | median junctional conductance (Gj), dual whole-cell patch clamp of DKO HEK293 cell pairs, heterotypic; IQR 0–0; 19 pairs (Cx36 E241K (human)): 0 nS | median junctional conductance (Gj), dual whole-cell patch clamp of DKO HEK293 cell pairs, heterotypic; IQR 0–0; 18 pairs [2]: 0 nS

Cx36 K238E-E230K (from UniProt Q9UKL4 1-321) (natural protein)
median junctional conductance (Gj), dual whole-cell patch clamp of DKO HEK293 cell pairs, homotypic; IQR 0–0; 15 pairs (Cx36 K238E-E230K (human)): 0 nS

Cx36 K238E-E230K-E239K (from UniProt Q9UKL4 1-321) (natural protein)
median junctional conductance (Gj), dual whole-cell patch clamp of DKO HEK293 cell pairs, homotypic; IQR 0.08–0.14; 16 pairs [3]: 0.12 nS

Cx36 K238E-E230K-E239K-E241K (from UniProt Q9UKL4 1-321) (natural protein)
median junctional conductance (Gj), dual whole-cell patch clamp of DKO HEK293 cell pairs, homotypic; IQR 0–0; 16 pairs [4]: 0 nS

Cx36 K238E-E239K (from UniProt Q9UKL4 1-321) (natural protein)
median junctional conductance (Gj), dual whole-cell patch clamp of DKO HEK293 cell pairs, homotypic; IQR 0–0; 15 pairs (Cx36 K238E-E239K (human)): 0 nS

Cx36 K238Q (from UniProt Q9UKL4 1-321) (natural protein)
median junctional conductance (Gj), dual whole-cell patch clamp of DKO HEK293 cell pairs, homotypic; IQR 0–0; 16 pairs (Cx36 K238Q (human)): 0 nS

Cx43, human (from UniProt P17302 1-382) (natural protein)
median junctional conductance (Gj), dual whole-cell patch clamp of DKO HEK293 cell pairs, homotypic; IQR 0–9.93; 17 pairs (Cx43, human (human)): 0.46 nS

Cx45, human (from UniProt P36383 1-396) (natural protein)
median junctional conductance (Gj), dual whole-cell patch clamp of DKO HEK293 cell pairs, homotypic; IQR 0.5–19.6; 29 pairs (Cx45, human (human)): 6.8 nS
